A value given as a limit tells only on which side of the number the result lay.

Here are results for three molecules from US20150037340A1 (PEIRRE FABRE MEDICAMENT, published 2015).

Assay [1] addresses human protein Axl (cellular form on the cell surface) (human) (UniProt P30530). The experiment in a line: cell-based or functional assay.
The target is the same in assay [2]. The experiment in a line: flow cytometry, 9G4 labelling of SN12C cells treated 24 h with 9G4.
Assay [3] shares this target. Put plainly: flow cytometry, 9G4 labelling of untreated (No Ab) SN12C cells. A general note: A flow cytometer gives signals particle by particle.
For assay [4] the target is unchanged. Put plainly: Qifikit quantitative flow cytometry on DU-145 cells.
For assay [5] the target is unchanged. The experiment in a line: Qifikit quantitative flow cytometry on MCF7 cells.
Assay [6] shares this target. The experiment in a line: Qifikit quantitative flow cytometry on Panc1 cells.
The target is the same in assay [7]. The experiment in a line: Qifikit quantitative flow cytometry on PC3 cells.
Assay [8] has the same target. The experiment in a line: Qifikit quantitative flow cytometry on MDA-MB-435S cells.
For assay [9] the target is unchanged. Put plainly: Qifikit quantitative flow cytometry on NCI-H226 cells.
Assay [10] shares this target. Put plainly: Qifikit quantitative flow cytometry on NCI-H125 cells.
The target is the same in assay [11]. The experiment in a line: Qifikit quantitative flow cytometry on A172 cells.
Assay [12] has the same target. Put plainly: Qifikit quantitative flow cytometry on A431 cells.
For assay [13] the target is unchanged. Put plainly: flow cytometry, MAB154 labelling of untreated (No Ab) SN12C cells.
The target is the same in assay [14]. Put plainly: Qifikit quantitative flow cytometry on MDA-MB-231 cells.
Assay [15] has the same target. The experiment in a line: Qifikit quantitative flow cytometry on SN12C cells.
The target is the same in assay [16]. Put plainly: Qifikit quantitative flow cytometry on Calu-1 cells.
In assay [17] the target is T1, human protein Axl (cellular form on the cell surface) (human, UniProt P30530 26-894).
T1 construct: also called Axl receptor; membrane Axl receptor
T1 sequence: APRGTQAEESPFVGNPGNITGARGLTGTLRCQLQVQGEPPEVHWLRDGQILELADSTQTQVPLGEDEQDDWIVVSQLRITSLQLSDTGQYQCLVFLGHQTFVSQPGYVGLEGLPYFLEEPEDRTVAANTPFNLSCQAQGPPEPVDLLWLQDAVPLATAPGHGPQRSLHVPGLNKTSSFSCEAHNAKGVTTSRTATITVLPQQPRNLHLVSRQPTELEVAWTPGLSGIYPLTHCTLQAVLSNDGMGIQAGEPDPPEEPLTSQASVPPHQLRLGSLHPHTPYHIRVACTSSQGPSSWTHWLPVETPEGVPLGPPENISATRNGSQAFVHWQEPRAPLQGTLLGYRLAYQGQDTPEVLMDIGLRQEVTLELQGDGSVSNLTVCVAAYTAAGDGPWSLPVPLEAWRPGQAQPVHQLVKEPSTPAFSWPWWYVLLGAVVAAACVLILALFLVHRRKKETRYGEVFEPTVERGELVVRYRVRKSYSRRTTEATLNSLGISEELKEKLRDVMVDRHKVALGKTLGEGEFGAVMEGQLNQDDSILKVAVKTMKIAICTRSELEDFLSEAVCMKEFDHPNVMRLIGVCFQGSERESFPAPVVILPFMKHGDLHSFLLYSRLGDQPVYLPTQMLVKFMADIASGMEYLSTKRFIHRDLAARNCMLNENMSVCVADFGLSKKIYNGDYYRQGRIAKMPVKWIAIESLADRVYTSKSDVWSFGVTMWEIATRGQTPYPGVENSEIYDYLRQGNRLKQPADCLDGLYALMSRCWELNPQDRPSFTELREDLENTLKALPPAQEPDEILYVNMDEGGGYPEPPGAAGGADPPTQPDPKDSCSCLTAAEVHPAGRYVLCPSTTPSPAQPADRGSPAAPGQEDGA
Put plainly: flow cytometry on SN12C cells, anti-human IgG Alexa488; table under the graph, unit from the axis Log [M]. How it is done: Cells were detached using trypsin and cell concentration was adjusted at 1×10⁶ cells/ml in FACS buffer. A volume of 100 μL of cell suspension was incubated with increasing concentrations of either isotype controls or anti-Axl antibodies for 20 min. at 4° C. Cells were then washed three times with FACS buffer and incubated for 20 min. more using either anti-mouse IgG Alexa488 secondary antibody or anti-human IgG Alexa488 secondary antibody at 4° C. in the dark. Cells were washed three times with FACS buffer and resuspended with 100 μl of FACS buffer before adding propidium iodide.

Turning to “9G4 murine IgG1 isotype control antibody”, in assay [1], the % remaining Axl, SN12C cells is 117% and the Δ (MFI No Ab 24 h - MFI Ab 24 h), SN12C cells is -2 MFI. Moreover, the MFI at T24 h in assay [2] stood at 13 MFI. The molecule further showed an MFI at T24 h in assay [3] of 11 MFI.
For “MAB154 commercial anti-Axl antibody (R and D Systems, ref MAB154)”, the ABC (Qifikit) was determined as 55300 ABC in [4]; 71 ABC in assay [5]; 36800 ABC in assay [6]; 8420 ABC in assay [7]; 17800 ABC in assay [8]; 32100 ABC in [9]. The ABC (Qifikit) in assay [10] is 5540 ABC; in assay [11], 52400 ABC; in assay [12] it was 3950 ABC; in assay [14] it was 61200 ABC; in assay [15] it was > 100000 ABC; in assay [16], > 100000 ABC. This molecule showed an MFI at T24 h in [13] of 950 MFI. The antigen binding capacity (ABC) in assay [15] is > 100000 ABC.

B1: c1613F12 (chimeric 1613F12) (antibody, V domains shown)
VH: EVHLQQSGAELVKPGASVKLSCTASGFNIRDTYIHWVKQRPEQGLEWIGRLDPANGHTKYGPNFQGRATMTSDTSSNTAYLQLSSLTSEDTAVYYCARGAYYYGSSGLFYFDYWGQGTTLSVSS
VL: DVQITQSPSYLATSPGETITINCRASKSISKYLAWYQEKPGKTNKLLIYSGSTLQSGVPSRFSGSGSGTDFTLTISSLEPEDFAMYFCQQHHEYPLTFGAGTELELK
notes: Murine variable domains with human constant regions; also called chimeric form of the 1613F12
What is called EC50 is the concentration needed to bring the measured effect to its halfway point. Lower therefore signals an effect from little substance. In the case of B1, the EC50 in [17] was determined as 1.81 nM.
